We go through one molecule from patent publication US10494417B2, “Peptide inhibitors of BCR-ABL oligomerization” (University of Utah Research Foundation, priority 2014, dated 2019).

In assay [1] the test system is CD34+ cells from newly diagnosed CML patients. The assay is described as follows: Colony forming assay of CD34+ cells from newly diagnosed CML patients. Format: cell-based, human. Conditions: for colony formation, in words: day 14 CFU-GM, lentiviral CCmut3 or 2.5 μM imatinib vs EV. On the procedure: Primary cells were seeded in Methocult H4230 (Stem Cell Technologies) as described previously (Fleischman, A. G., et al. (2011). Blood 118, 6392-6398). Briefly, lentivirus-infected (GFP^+) cells were isolated by FACS and resuspended in RPMI1640. Cells were plated in Methocult H4230 at 1,000 cells/mL supplemented with 1× StemSpan CC100 cytokine mix (StemCell Technologies) with or without TKI as indicated in each experiment. Plates were incubated at 37° C. in a 5% CO2 humidified incubator for 14 days. Colony forming units of granulocyte-macrophage (CFU-GM) were counted on day 14 using an inverted microscope.
Following selection of transfected cells by cell sorting, methylcellulose colony assays were performed by plating in 0.9% methylcellulose (Stem Cell Technologies; M3234 for Ba/F3 BCR-ABL1 native and mutant lines; M3434 for Ba/F3 parental cells; H4230 for CML patient samples). mCherry-positive Ba/F3 cells (1.1×10^3 cells/plate) or GFP-positive primary CML CD34+ cells (1×10^3 cells/plate) were seeded per dish in duplicate. In the case of CML patient samples, cells were plated in the presence of 1× StemSpan CC100 cytokine cocktail (StemCell Technologies). All cells were plated with or without the indicated TKI in three or more independent experiments. Plates were incubated at 37° C. in a 5% CO2 humidified incubator. Colonies were counted 7-14 days later in an area of 50 μm2 per dish using an inverted microscope.

Assay [2] relates to Ba/F3 cells expressing native BCR-ABL1. The assay can be described thus: Proliferation of transfected Ba/F3 cells with native p210 BCR-ABL1 (MTS assay). Format: cell-based, mouse. The following applies: CCmut3 vs EV; for reduction of proliferation: 96 h. On the procedure:
Stable recombinant Ba/F3 cells transduced with wild type p210 BCR-ABL1 (Daley, G. Q., et al. (1991) Proc. Natl. Acad. Sci. U.S.A. 88, 11335-11338), the kinase domain mutants p210^T315I p210^[…], or the compound mutant p210^E255V/T315I were as previously described (La Rosee, P., et al. (2002) Cancer Res. 62, 7149-7153; O'Hare, T., et al. (2004) Blood 104, 2532-2539). These cells were cultured in RPMI with 10% FBS, 1% penicillin, streptomycin, glutamine, and 0.1% gentamycin (RPMI1640). Additionally 0.1% MycoZap™ (Lonza Bio, Basel, Switzerland) was added to prevent mycoplasma contamination. The non-transduced parental Ba/F3 cell line was grown in RPMI1640 supplemented with 20% WEHI-3B conditioned medium as a source of murine IL-3 (Dexter, T. M., et al. (1980) J. Exp. Med. 152, 1036-1047). Ba/F3 cells were transfected with plasmid DNA using the Amaxa nucleofection system (Lonza Bio), following the manufacturer's instructions. Cells were sorted on a BD FACSAria cytometer (BD Biosciences, San Jose, Calif.) for double-positive cells expressing mCherry and GFP then returned to RPMI1640 for subsequent experiments.
Cell proliferation was assessed using the CellTiter 96® AQueous One Solution Cell Proliferation Assay (MTS assay, Promega) according to manufacturer instructions. Briefly, 5,000 viable cells were added to a single well in 96-well plate in 100 μL RPMI1640. Three independent samples were seeded in duplicate for each time point. […] In some experiments, cell proliferation was assessed using a Neubauer chamber and trypan blue dye exclusion.
Stable Ba/F3 cells transduced with native (p210) BCR-ABL1, the kinase domain mutants BCR-ABL1T315I, BCR-ABL1E255V, or the compound mutant BCR-ABL1E255V/T315I were cultured. […]
Cell proliferation was assessed using a […] viability assay (MTS assay) utilizing CellTiter 96® AQueous One Solution Cell Proliferation Assay (Promega) according to manufacturer instructions. […] Cell growth was assessed by MTS assay at 72 and 96 h. […] In patient sample experiments, cell proliferation was assessed by trypan blue exclusion.

Assay [3] concerns Ba/F3-p210-T315I cells. The assay can be described thus: Colony forming assay of Ba/F3 BCR-ABL1 T315I cells. Format: cell-based, mouse. Conditions: for colony formation, in words: CCmut3 gene delivery (transfection; b502 lentiviral infection) vs EV; for reduction in CFCs / colony forming ability: CCmut3 vs EV. On the procedure:
Both EGFP and EGFP-CC^mut3 were transfected into separate groups of cells on day 0. One day following transfection, 1.0×10^6 cells per treatment group were collected and re-suspended in 1.0 mL of PBS. Through serial dilutions, 1.0×10^3 cells in IMDM (Isocove's modified Dulbecco's media) with 2% FBS were seeded into methylcellulose medium in the absence of cytokines (MethoCult H4230 for K562 cells and MethoCult M3234 for p210 and p210-T315I cells) or in the presence of cytokines (MethoCult GF M3434 for parental Ba/F3 cells). Ponatinib was then added in the correct molar amounts (0, 100 pM, 1 nM, or 10 nM) to the methylcellulose medium. Colonies formed were counted after 7 days of incubation. All reagents were purchased from Stem Cell Technologies, Vancouver, BC, Canada. Assay was run three separate times (n=3) in duplicate.
Briefly, mCherry-positive Ba/F3 cells were re-suspended in IMDM with 2% FBS (Stem Cell Technologies) at a concentration of 10,000 cells/mL. Three hundred microliters of this dilution was added to 3 mL of Methocult media (M3434—Ba/F3 p210 wild-type and mutant lines or M3234—Ba/F3 parental, Stem Cell Technologies). Approximately 1100 cells, or 1.2 mL, were seeded per dish in duplicate for each transfection. Colonies were counted 7 days later in an area of 100 μm^2 per dish.
All cells were plated with or without the indicated TKI in three or more independent experiments. Plates were incubated at 37° C. in a 5% CO2 humidified incubator. Colonies were counted 7-14 days later in an area of 50 μm2 per dish using an inverted microscope.

B1: CCmut3: modified Bcr-Abl coiled-coil domain (residues 1-72) with mutations C38A, K39E, S41R, L45D, E48R, Q60E (protein)
chain: MVDPVGFAEAWKAQFPDSEPPRMELRSVGDIEQELERAEARIRRDEQRVNQERFRMIYLETLLAKEKKSYDR
B1: the “colony formation, in words” value is “equally effective in reducing colony number” in assay [1], “reduced to similar degree” in assay [1] (listed as CC^mut3), “significantly fewer colonies per unit area” in assay [3] and “Inhibition in colony formation” in assay [3] (listed as CC^mut3). Moreover, the “inhibition of colony formation” value in assay [1] (four newly diagnosed patient samples, day 14, normalized to EV) is listed as roughly 60%. In addition, the reduction of proliferation is given as greater than 2 fold in assay [2] and “more than 2 fold” in assay [2] (listed as CC^mut3). In assay [2], the “proliferation, in words” value was “significantly reduced proliferation at 96 h”. The “reduction of transformative ability compared to EGFP control” value in assay [3] (CC^mut3 alone, Ba/F3-p210-T315I) is recorded as roughly 40%. Besides, the “reduction in CFCs / colony forming ability” value was greater than 10 fold in assay [3] and “more than 10 fold” in assay [3] (listed as CC^mut3).
